Experimental data taken from patent US8349801B2, “Peptide ligands for G-protein coupled receptors” (priority 2006, dated 2013).
No end group written: not given here.

Legend:
Mas receptor = target: T1, Mas receptor (Homo sapiens, UniProt P04201); assay: Calcium flux in CHO-K1 cells co-transfected with Mas receptor and Gα16; assay type: cell-based; conditions: for ability to induce calcium flux, P33 monomer, dimer and derivatives compared: 0.1, 1, 10, 100, 1000 and 10000 nM; for ability to induce calcium flux, P61-related peptides compared: dose response; for EC50: doses 10-3000 nM, highest response not reached
T1 construct: expressed in transfected cells; host or cells: CHO-K1 (ATCC-CCL-61), transient co-transfection
T1 sequence (P04201 1-325): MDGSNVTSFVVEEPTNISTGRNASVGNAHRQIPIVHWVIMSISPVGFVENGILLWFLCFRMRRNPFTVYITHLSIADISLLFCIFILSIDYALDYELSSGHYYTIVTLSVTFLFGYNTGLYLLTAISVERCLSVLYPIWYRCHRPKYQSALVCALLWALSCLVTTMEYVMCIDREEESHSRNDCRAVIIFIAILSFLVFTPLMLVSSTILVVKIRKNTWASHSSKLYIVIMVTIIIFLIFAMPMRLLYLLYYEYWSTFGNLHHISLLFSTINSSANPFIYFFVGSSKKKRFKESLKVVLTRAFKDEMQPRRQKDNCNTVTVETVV
Protocol: (§1) The assay was carried out in CHO cells were transiently transfected with the GPCR of choice, by utilizing the promiscuous Gα16 to divert signaling to the Gq pathway, thus enabling readout of GPCR activation by testing for Calcium flux as described by Liu et al 2003 (Biomol Screen 8, 39-49).
(§2) All the peptides thus obtained were tested for their ability to change calcium flux in CHO—K1 cells (ATCC-CCL-61) transiently co-transfected with an expression vector containing the GPCR of choice and expression vector containing the Gα16 encoding cDNA. Expression constructs containing cDNA clones for MrgX1, MrgX2, Mas or FPRL1 were commercially obtained in one of the following expression vectors: pcDNA3.1, pCMV6, or MO2.
(§3) Transient transfections were performed using CHO—K1 cells as host cells. Cells (12 million) were plated into T75 flasks on the day preceding transfection. Cells were transfected with the appropriate GPCR expression vector and with a vector expressing Gα16 using a lipid-based reagent, MTI, according to the manufacturer's recommendation. Cells were transfected for 5 hours, then re-plated into 96-well dishes (60,000 cells per well) and grown overnight.
(§4) On the day of the experiment, cells were loaded with Fluo4-NW (Invitrogen) according to the manufacturer's recommendation. Plates were loaded into a FlexStation™ (Molecular Devices) plate reader and fluorescence was monitored. Seventeen seconds following initiation of reading, cells were stimulated with the indicated agonist/compound at final concentration of 1 μM. Each 96 well plate contained cells transfected with one GPCR expression vector and each of the examined peptides was tested in triplicate.
(§5) We defined a hit as a peptide which elicited a clear and distinct increase in intracellular calcium that is clearly visible and statistically significant upon examination of the calcium trace for at least two repeats. The criterion for statistical significance was a p-value lower than 0.001 in a t-test comparing the levels of calcium before and after peptide addition.
(§6) Based on dose response experiments, EC50 best fit values were calculated by non-linear regression of sigmoidal dose-response curves, using Prism version 4 (GraphPad Software Inc., San Diego, Calif.). The formulae for the sigmoidal dose-response curves was defined as Y=Bottom+(Top−Bottom)/(1+10^ (LogEC50−X)*HillSlope))
The ability of Peptides to change calcium flux was examined in CHO—K1 cells co-transfected with Mas receptor and Gα16.

FPRL1 = target: T2, FPRL1 (Homo sapiens, UniProt P25090); assay: Calcium flux in CHO-K1 cells co-transfected with FPRL1 and Gα16; assay type: cell-based; set-up: expressed in transfected cells; host or cells: CHO-K1 (ATCC-CCL-61), transient co-transfection; conditions: for ability to induce calcium flux, P33-derived peptides: 0.1, 1, 10, 100, 1000, 10000 nM; for calcium flux, P58 and derivatives: dose response
T2 sequence (P25090 1-351): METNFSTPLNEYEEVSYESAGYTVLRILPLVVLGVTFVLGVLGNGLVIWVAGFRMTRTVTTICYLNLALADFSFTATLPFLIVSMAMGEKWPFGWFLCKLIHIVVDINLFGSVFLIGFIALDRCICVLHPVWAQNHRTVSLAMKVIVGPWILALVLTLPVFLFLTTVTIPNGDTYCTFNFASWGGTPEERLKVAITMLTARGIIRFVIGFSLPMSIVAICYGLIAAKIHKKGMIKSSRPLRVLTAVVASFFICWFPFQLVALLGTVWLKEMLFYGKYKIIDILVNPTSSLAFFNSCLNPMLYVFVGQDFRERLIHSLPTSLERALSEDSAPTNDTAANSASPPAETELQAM
Protocol: as §1, §2, §3, §4, §5, §6
The ability of Peptides to change calcium flux was examined in CHO—K1 cells co-transfected with FPRL1 and Gal 6.

[1] = system: aortic rings from Wistar rat; assay: Vasorelaxant activity in phenylephrine pre-contracted aortic rings; conditions: for vasodilator effect in the presence of L-NAME: 100 μM L-NAME, NO synthase inhibitor; for vasodilator effect in the absence of functional endothelium: endothelium-denuded vessels; for Maximal values for the relaxant effect (Emax): mean±SEM
Description: Male Wistar rats of the age of 13-14 weeks (body weight: 250 to 300 g) were used. The rats were exposed to light-dark cycle of 12 hs (day—06:00 to 18:00; night—18:00 to 06:00) controlled by timer. Rats were killed by decapitation and exsanguination and tissues were rapidly removed.
Rings (3-4 mm) from the descending thoracic aorta, free of adipose and connective tissue, were set up in gassed (95% O2 and 5% CO2) Krebs-Henseleit solution (mmol/L): NaCl 110.8, KCl 5.9, NaHCO3 25.0, MgSO4 1.07, CaCl2 2.49, NaH2PO4 2.33 and glucose 11.51, at 37° C., under a tension of 1.0 g, for 1 hour to equilibrate. The presence of functional endothelium was assessed by the ability of Acetylcholine (1 μM) to induce more than 70% relaxation of vessels pre-contracted with phenylephrine (0.3 μM) (Lemos et al., 2005). When necessary, the endothelium was removed by rubbing the intimal surface with a wooden stick. Mechanical activity, recorded isometrically by a force transducer (Panlab, model number TR1210, Spain), was fed to an amplifier-recorder (Powerlab 4/20, ADInstruments, Inc.) and to a personal computer equipped with an analogue-to-digital converter board (AD16JR; World Precision Instruments, Inc.), using CVMS data acquisition/recording software (World Precision Instruments, Inc.).
The vasorelaxant activity of peptides —P61_S (SEQ ID NO:10), P61 (SEQ ID NO.9)-dimer (P61_D), P33_V (SEQ ID NO:7) and P33 (SEQ ID NO:6)-dimer (P33_D) were measured in vessels (N=5-8) with or without functional endothelium pre-contracted to the same tension level (approximately 1.5 g of tension) induced by submaximal concentrations of phenylephrine (0.01 μM). For comparison, the effect of Ang-(1-7) was also tested (N=4)
P61_S (SEQ ID NO:10), P61 (SEQ ID NO9)-dimer (P61_D), P33_V (SEQ ID NO:7) or P33 (SEQ ID NO:6)-dimer (P33_D) were added in increasing cumulative concentrations (0.0001 to 1 μM) once the response to phenylephrine had stabilized (FIG. 28). In order to verify the participation of endothelium-derived products in the relaxant effect of peptides, experiments were performed in the presence of 100 μM N′-Nitro-L-Arginine Methyl Ester-[L-NAME]—a nonselective inhibitor of nitric oxide synthase. In experiments performed in the presence of L-NAME, vessels were pre-contracted with 0.03 μM of phenylephrine, to achieve the same tension level as the others. L-NAME was added to the bath 20 min prior to the addition of phenylephrine.
Results are presented as mean±SEM. Two-way analysis of variance (ANOVA) with Bonferroni multiple comparison post-test was used to compare concentration response curves obtained in aortic rings. The vasodilator effect of P61_S (SEQ ID NO:10), P61 (SEQ ID N09)-dimer (P61_D), P33_V (SEQ ID NO:7), P33 (SEQ ID NO:6)-dimer (P33_D) and Ang-(1-7) were expressed as percentage decrease in maximal contraction induced by phenylephrine. All statistical analyses were considered significant when p<0.05.

[2] = vessels with endothelium, 0.0001 to 1 μM cumulative

Substance: AVLFPAAHRP (listed as Homo sapiens) [P33—5]
- ability to induce calcium flux, P33 monomer, dimer and derivatives compared (Mas receptor): no activity
- ability to induce calcium flux, P33-derived peptides (FPRL1): failed to induce calcium flux

Substance: Angiotensin 1-7 [Ang-(1-7), reference compound]
- Ca response (Mas receptor; dose response experiment, data not shown): did not induce Ca response
- vasodilator effect in the presence of L-NAME [1]: completely inhibited
- vasodilator effect in the absence of functional endothelium [1]: abolished
- Maximal values for the relaxant effect (Emax) [1, 2]: 15.64±1.91%
- Maximal values for the relaxant effect (Emax) ([1]; vessels without endothelium): 2.82±3.11%

Substance: FAFLGYSIYLNRKRRGDPAF (listed as Homo sapiens) [P61—11S]
- ability to induce calcium flux, P61-related peptides compared (Mas receptor): as potent as P61_S

Substance: FLGYSIYLNRKRRGDPAFKRRLRD [Peptide P61_S]
- EC50 (Mas receptor): ≥ 500 nM

Substance: HRWSRAVLFPAAHRP (listed as Homo sapiens) [P33—9]
- ability to induce calcium flux, P33 monomer, dimer and derivatives compared (Mas receptor): induced calcium flux, albeit at a somewhat lower degree compared to P33_V
- ability to induce calcium flux, P33-derived peptides (FPRL1): failed to induce calcium flux

Substance: IYLNRKRRGDPAFKRRLRD (listed as Homo sapiens) [P61—4]
- ability to induce calcium flux, P61-related peptides compared (Mas receptor): somewhat weaker

Substance: RWSRAVLFPAAHRP (listed as Homo sapiens) [P33—8]
- ability to induce calcium flux, P33 monomer, dimer and derivatives compared (Mas receptor): induced calcium flux, albeit at a somewhat lower degree compared to P33_V
- ability to induce calcium flux, P33-derived peptides (FPRL1): failed to induce calcium flux

Substance: SMCHRWSRAVLFPAAHRP [P33_dimer] (also: dimer via cysteine; listed as Homo sapiens) [Peptide P33_dimer]
- ability to induce calcium flux, P33 monomer, dimer and derivatives compared (Mas receptor): superior to the monomeric peptides
- vasodilator effect in the presence of L-NAME [1]: completely inhibited
- vasodilator effect in the absence of functional endothelium [1]: completely inhibited
- Maximal values for the relaxant effect (Emax) [1, 2]: 17.78±3.43%
- ability to induce calcium flux, P33-derived peptides (FPRL1): inactive

Substance: SMCHRWSRAVLFPAAHRP [Peptide P33_mono]
- ability to induce calcium flux, P33 monomer, dimer and derivatives compared (Mas receptor): equally potent
- ability to induce calcium flux, P33-derived peptides (FPRL1): similarly potent

Substance: SMVHRWSRAVLFPAAHRP [Peptide P33_V, SMVHRWSRAVLFPAAHRP]
- EC50 (Mas receptor): ≥ 1000 nM

Substance: TIPMFVPESTS (listed as Homo sapiens) [P58—6]
- calcium flux, P58 and derivatives (FPRL1): did not induce calcium flux

Substance: TIPMFVPESTSKLQ (listed as Homo sapiens) [P58—7]
- calcium flux, P58 and derivatives (FPRL1): did not induce calcium flux

Substance: TIPMFVPESTSTLQ (listed as Homo sapiens) [P58—12]
- calcium flux, P58 and derivatives (FPRL1): did not induce calcium flux

Substance: TIPMFVPESTSTLQKFTSWFM-amide (TIPMFVPESTSTLQKFTSWFM-NH2; listed as Homo sapiens) [P58—10]
- calcium flux, P58 and derivatives (FPRL1): elicited calcium flux

Substance: WSRAVLFPAAHRP (listed as Homo sapiens) [P33—10]
- ability to induce calcium flux, P33 monomer, dimer and derivatives compared (Mas receptor): induced calcium flux, albeit at a somewhat lower degree compared to P33_V
- ability to induce calcium flux, P33-derived peptides (FPRL1): failed to induce calcium flux
